The values that follow are results of earlier work, collected in PMC4059402 (Chembiochem : a European journal of chemical biology, 2014).

The conditions of the data set: with laurate.

B1: wild-type CYP102A1: long-chain fatty acid monoxygenase CYP102A1 (P450BM3) from B. megaterium (protein, UniProt P14779 1-1049, looked up)
Bifunctional cytochrome …: MTIKEMPQPKTFGELKNLPLLNTDKPVQALMKIADELGEIFKFEAPGRVTRYLSSQRLIKEACDESRFDKNLSQALKFVRDFAGDGLFTSWTHEKNWKKAHNILLPSFSQQAMKGYHAMMVDIAVQLVQKWERLNADEHIEVPEDMTRLTLDTIGLCGFNYRFNSFYRDQPHPFITSMVRALDEAMNKLQRANPDDPAYDENKRQFQEDIKVMNDLVDKIIADRKASGEQSDDLLTHMLNGKDPETGEPLDDENIRYQIITFLIAGHETTSGLLSFALYFLVKNPHVLQKAAEEAARVLVDPVPSYKQVKQLKYVGMVLNEALRLWPTAPAFSLYAKEDTVLGGEYPLEKGDELMVLIPQLHRDKTIWGDDVEEFRPERFENPSAIPQHAFKPFGNGQRACIGQQFALHEATLVLGMMLKHFDFEDHTNYELDIKETLTLKPEGFVVKAKSKKIPLGGIPSPSTEQSAKKVRKKAENAHNTPLLVLYGSNMGTAEGTARDLADIAMSKGFAPQVATLDSHAGNLPREGAVLIVTASYNGHPPDNAKQFVDWLDQASADEVKGVRYSVFGCGDKNWATTYQKVPAFIDETLAAKGAENIADRGEADASDDFEGTYEEWREHMWSDVAAYFNLDIENSEDNKSTLSLQFVDSAADMPLAKMHGAFSTNVVASKELQQPGSARSTRHLEIELPKEASYQEGDHLGVIPRNYEGIVNRVTARFGLDASQQIRLEAEEEKLAHLPLAKTVSVEELLQYVELQDPVTRTQLRAMAAKTVCPPHKVELEALLEKQAYKEQVLAKRLTMLELLEKYPACEMKFSEFIALLPSIRPRYYSISSSPRVDEKQASITVSVVSGEAWSGYGEYKGIASNYLAELQEGDTITCFISTPQSEFTLPKDPETPLIMVGPGTGVAPFRGFVQARKQLKEQGQSLGEAHLYFGCRSPHEDYLYQEELENAQSEGIITLHTAFSRMPNQPKTYVQHVMEQDGKKLIELLDQGAHFYICGDGSQMAPAVEATLMKSYADVHQVSEADARLWLQQLEEKGRYAKDVWAG
B1: the catalytic rate was 1,680 min^−1.
